Measurements published in US7625718B2, “SVCT2 transporters expressed in blood brain barrier cells” (XenoPort, Inc., priority 2005, dated 2009).

Tested on: T1, O=C1O[C@H]([C@@H](O)CO)C(O)=C1O
T1 construct: expressed in transfected cells; host or cells: HEK-TREx cells, tetracycline-induced
Test: hSVCT2 direct uptake assay in HEK-TREx-hSVCT2 cells (LC-MS-MS)
Assay type: cell-based, human
Details: other: HEK-TREx-hSVCT2 cells induced to express hSVCT2
Experimental: A modified direct uptake assay was developed to determine the ability of test compounds to be transported into HEK-TREx cells induced to over-express hSVCT2. Four concentrations (bracketing the affinity as measured by competition assays) per compound were routinely tested. Non-specific uptake was determined by measuring the uptake into cells not induced to express the transporter (“no tet”).
The direct uptake assays were prepared as follows: Compounds were prepared for assay by diluting a 100 mM stock concentration (in DMSO or water, depending on compound solubility) to the appropriate working concentration. Typically, four concentrations bracketing the IC50 were tested. The highest test concentration for each compound was made in an Eppendorf tube and diluted into HBSS. The samples were robustly vortexed and centrifuged for 10 minutes at 13,200 rpm to spin down any precipitate. The supernatant from these samples (˜150 μl/well) was carefully removed and placed into six wells of row A (cmpd 1: A1-6; cmpd 2: A7-12) or row E (cmpd 3: E1-6; cmpd 4: E7-12) of a 96-well polypropylene “compound” plate. Three additional 2-fold dilutions were made in the subsequent rows (B-D or […]) in HBSS. […]

Q: Which Km does the source give for hSVCT2 (Homo sapiens) here?
A: 14 µM
